Laboratory results as given in patent US20180362631A1 (Eli Lilly, published 2018).
One block for each binder: values may come before it.

Experiments:
[1] = target: T1, human CXCL8 point mutant L49A (human, UniProt P10145 28-99, limits assumed); test: cell-based or functional assay
[2] = target: T2, human CXCL8 (IL-8) (human, UniProt P10145 28-99); test: cell-based or functional assay
T2 sequence: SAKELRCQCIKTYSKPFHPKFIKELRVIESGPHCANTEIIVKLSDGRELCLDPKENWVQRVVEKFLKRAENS

[3] = target: T3, human CXCL1 (Gro alpha) (human, UniProt P09341 35-107); test: SPR (Biacore 2000), antibody captured on Protein A, chemokine as analyte, 25 C
T3 construct: also called human Gro-alpha
T3 sequence: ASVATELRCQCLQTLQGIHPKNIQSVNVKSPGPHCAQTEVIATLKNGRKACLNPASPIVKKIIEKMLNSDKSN
Procedure: (§1) Biacore 2000 instrument and Biacore 2000 Evaluation Software Version 4.1 are used for surface plasmon resonance analysis. A […] chip is prepared using manufacturer's EDC/NHS amine coupling method. Briefly, the surfaces of all four flow cells are activated by injecting a 1:1 mixture of EDC/NHS for 7 minutes at 10 μL/min. Protein A is diluted to 100 μg/mL in 10 mM acetate, pH 4.5 buffer, and immobilized to achieve approximately 10,000 RU onto all 4 flow cells by 7-minute injection at a flow rate of 10 μL/minute. Unreacted sites are blocked with a 7-minute injection of ethanolamine at 10 μL/minute. Two injections of glycine (pH 1.5) for 30 seconds at 10 μL/minute are used to remove any non-covalently associated protein. Running buffer is HBS-EP+.
(§2) Antibody 1 or Antibody 2 is diluted to 2 μg/mL in running buffer, and approximately 400-600 RU is captured in flow cell (Fc). Ligands are diluted from 100 μg/mL to 50 nM in running buffer and then two-fold serially diluted in running buffer to 3.125 nM. Duplicate injections of each ligand concentration are injected at 100 μL/min for 150 seconds followed by a dissociation phase. The dissociation phase is 1800 seconds for all ligands. Regeneration is performed by injecting 10 mM glycine (pH 1.5) for 60 seconds at […] over all flow cells. Reference-subtracted data is collected as Fc2-Fc1, Fc3-Fc1, and Fc4-Fc1. The measurements are obtained at 25° C. The on-rate (kₒₙ) and off-rate (koff) for each ligand are evaluated using a “1:1 (mass transfer) Binding” binding model. The affinity […] is calculated from the binding kinetics according to the relationship: KD=koff/kₒₙ.

[4] = target: T2, human CXCL8 (IL-8); test: as above
Procedure: as §1, §2

[5] = target: T4, human CXCL2 (Gro beta) (human, UniProt P19875 35-107); test: as above
T4 construct: also called human Gro-beta
T4 sequence: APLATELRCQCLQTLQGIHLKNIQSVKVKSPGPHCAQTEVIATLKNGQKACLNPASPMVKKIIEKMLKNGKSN
Procedure: as §1, §2

[6] = target: T5, human CXCL3 (Gro gamma) (human, UniProt P19876 35-107); test: as above
T5 construct: also called human Gro-gamma
T5 sequence: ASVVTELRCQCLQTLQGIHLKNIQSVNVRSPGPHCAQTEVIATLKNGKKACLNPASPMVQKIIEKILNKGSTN
Procedure: as §1, §2

[7] = target: T6, human CXCL5 (ENA-78) (human, UniProt P42830 41-114); test: as above
T6 construct: also called human ENA-78
T6 sequence: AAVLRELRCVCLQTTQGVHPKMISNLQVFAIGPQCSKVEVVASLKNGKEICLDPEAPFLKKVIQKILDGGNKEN
Procedure: as §1, §2

[8] = target: T7, human CXCL7 (NAP-2) (human, UniProt P02775 59-128); test: as above
T7 construct: also called human NAP-2
T7 sequence: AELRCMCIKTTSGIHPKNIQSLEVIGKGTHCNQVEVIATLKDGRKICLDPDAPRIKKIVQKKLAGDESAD
Procedure: as §1, §2

[9] = target: T8, human CXCL6 (GCP-2) (human, UniProt P80162 40-114); test: as above
T8 construct: also called human GCP-2
T8 sequence: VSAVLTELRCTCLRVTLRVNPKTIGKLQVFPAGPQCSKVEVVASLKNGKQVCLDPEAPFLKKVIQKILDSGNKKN
Procedure: as §1, §2

[10] = target: T1, human CXCL8 point mutant L49A; test: SPR (Biacore 2000), antibody captured on Protein A, CXCL8 variant as analyte, 25 C
Procedure: (§3) Binding kinetics are tested on a Biacore 2000 instrument with Biacore 2000 Evaluation Software Version 4.1 as described above.
(§4) The on-rate (kₒₙ) and off-rate (koff) for each ligand are evaluated using a “1:1 (mass transfer) Binding” binding model. The affinity (KD) is calculated from the binding kinetics according to the relationship: KD=koff/kₒₙ.

[11] = target: T2, human CXCL8 (IL-8); test: as above
Procedure: as §3, §4

[12] = target: human CXCL8 point mutant I40A (human, UniProt P10145 28-99, limits assumed); test: as above
Procedure: as §3, §4

[13] = target: human CXCL8 point mutant I10A (human, UniProt P10145 28-99, limits assumed); test: as above
Procedure: as §3, §4

[14] = target: human CXCL8 point mutant A35P (human, UniProt P10145 28-99, limits assumed); test: as above
Procedure: as §3, §4

[15] = target: T3, human CXCL1 (Gro alpha); test: cell-based or functional assay
[16] = target: T2, human CXCL8 (IL-8); test: cell-based or functional assay; remark: listed apart in the source
[17] = target: human CXCL8 point mutant R6A (human, UniProt P10145 28-99, limits assumed); test: SPR (Biacore 2000), antibody captured on Protein A

IC50 (U937 FLIPR neutralization) [1]: 1.5 µg/mL | IC50 (U937 FLIPR neutralization) [2]: 0.9 µg/mL | Kd [3]: 0.113 nM | koff [3]: 0.000105 s⁻¹ | kon [3]: 930000 M⁻¹ s⁻¹ | Kd [4]: 0.384 nM | koff [4]: 0.00013 s⁻¹ | kon [4]: 339000 M⁻¹ s⁻¹ | Kd [5]: 0.171 nM | koff [5]: 0.000131 s⁻¹ | kon [5]: 773000 M⁻¹ s⁻¹ | Kd [6]: 0.172 nM | koff [6]: 0.000123 s⁻¹ | kon [6]: 716000 M⁻¹ s⁻¹ | Kd [7]: 0.226 nM | koff [7]: 0.000122 s⁻¹ | kon [7]: 543000 M⁻¹ s⁻¹ | Kd [8]: 0.181 nM | koff [8]: 0.000161 s⁻¹ | kon [8]: 900000 M⁻¹ s⁻¹ | Kd [9]: 0.818 nM | koff [9]: 0.000578 s⁻¹ | kon [9]: 707000 M⁻¹ s⁻¹ | Kd [10]: 3.83 nM | koff [10]: 0.000544 s⁻¹ | kon [10]: 143000 M⁻¹ s⁻¹ | Kd [11]: 0.236 nM | koff [11]: 0.000441 s⁻¹ | kon [11]: 3.03e+06 M⁻¹ s⁻¹ | Kd [12]: 27.1 nM | koff [12]: 0.000424 s⁻¹ | kon [12]: 16100 M⁻¹ s⁻¹ | Kd [13]: 1.26 nM | koff [13]: 0.000344 s⁻¹ | kon [13]: 277000 M⁻¹ s⁻¹ | Kd [14]: 4.74 nM | koff [14]: 0.00497 s⁻¹ | kon [14]: 1.06e+06 M⁻¹ s⁻¹ | IC50, chemotaxis of primary human neutrophils, CXCL1 at 5 nM [15]: 18.5 nM | IC50, chemotaxis of primary human neutrophils, CXCL1 at 20 nM [15]: 40.3 nM | IC50, chemotaxis of primary human neutrophils, CXCL8 at 5 nM [16]: 26.4 nM | IC50, chemotaxis of primary human neutrophils, CXCL8 at 10 nM [16]: 43.7 nM | binding result [17]: no binding
B1: Antibody 1 (antibody, human IgG4 S228P, kappa, V domains shown)
VH: QVQLVQSGAEVKKPGASVKVSCKASGYEFTSYWIHWVRQAPGQGLEWMGNISPNSGSANYNEKFKSRVTMTRDTSTSTVYMELSSLRSEDTAVYYCAREGPYSYYPSREYYGSDLWGQGTLVTVSS
VL: EIVLTQSPATLSLSPGERATLSCRASQSISNNLHWYQQKPGQAPRLLIYYTSRSVSGIPARFSGSGSGTDFTLTISSLEPEDFAVYYCGQNNEWPEVFGGGTKVEIKR
notes: Full-length IgG4 antibody expressed in NS0 cells

Kd [3]: 0.243 nM | koff [3]: 0.000153 s⁻¹ | kon [3]: 628000 M⁻¹ s⁻¹ | Kd [4]: 0.473 nM | koff [4]: 0.000124 s⁻¹ | kon [4]: 261000 M⁻¹ s⁻¹ | Kd [5]: 0.18 nM | koff [5]: 2.05e-05 s⁻¹ | kon [5]: 114000 M⁻¹ s⁻¹ | Kd [6]: 0.379 nM | koff [6]: 0.000176 s⁻¹ | kon [6]: 465000 M⁻¹ s⁻¹ | Kd [7]: 0.354 nM | koff [7]: 0.000151 s⁻¹ | kon [7]: 427000 M⁻¹ s⁻¹ | Kd [8]: 0.418 nM | koff [8]: 0.000218 s⁻¹ | kon [8]: 521000 M⁻¹ s⁻¹ | Kd [9]: 0.849 nM | koff [9]: 0.000611 s⁻¹ | kon [9]: 719000 M⁻¹ s⁻¹
B2: Antibody 2 (antibody, human IgG4 S228P, kappa, V domains shown)
VH: QVQLVQSGAEVKKPGASVKVSCKASGYEFTSYWIHWVRQAPGQGLEWMGNISPNSGSANYNEKFKSRVTMTRDTSTSTVYMELSSLRSEDTAVYYCAREGPYSYYPSRQYYGSDLWGQGTLVTVSS
VL: EIVLTQSPATLSLSPGERATLSCRASQSISNNLHWYQQKPGQAPRLLIYYTSRSVSGIPARFSGSGSGTDFTLTISSLEPEDFAVYYCGQNNEWPEVFGGGTKVEIKR
notes: as for B1
